# Experimental data taken from article PMC9006937, “Structure-Based Design and Antigenic Validation of Respiratory Syncytial Virus G Immunogens” (Journal of Virology, 2022).
# Values joined by “and” are separate entries in the source; they are usually repeats but may differ in a detail not shown here. Equal values may be shown once.
# B1: human anti-RSV G monoclonal antibody 2D10 (antibody, V domains shown)
# VH: QVQLVQSGPEVKKPGASVRLSCKASGYVFTNYGVSWVRQAPGQGLEWMGWSSPYNGNTYYAQKLKARVTMTTDTSTNTAYMELRSLRSDDTAVYYCGRDMLGVVQAVAGPFDSWGQGTLVTVSS
# VL: DTPMTQSPSSVSASVGDRVTISCRASQGISNSLAWYQQKLGKAPQLLIYAASSLQSGVPSRFSGSGSGTDFTLTISSLQPEDFATYYCQQTNTFPFTFGPGTKVEVR
# notes: heavy-chain variable region of human MAb 2D10; human IgG1 heavy-chain constant region as in the pCMVR VRC01 heavy-chain vector (AIDS Reagent Program); light-chain variable region of human MAb 2D10; light-chain constant region of the pCMVR VRC01 light-chain vector; IgG1; variable regions of 2D10 put in place of those of antibody VRC01 in the pCMVR VRC01 vectors; also called MAb 2D10
# B2: human anti-RSV G monoclonal antibody 3G12 (antibody, V domains shown)
# VH: QLQLQESGPGLVKPSETLSLTCTVSGGSISSSNYYWGWIRQPPGKGLEWIASIHDSGSIYYNPSLRSRVTISVDTSKNQFSLKLSSVTAADTAVYYCARHLVWFGELRNNWFDPWGQGTLVTVAS
# VL: EIVMTQSPATLSVSPGERATLSCRASQSVNSNLAWYQHKPGQAPRLLIYGASTRATGIPARFSGSGSGTDFTLTISSLQSEDFAVYYCQQYNNWPLFGPGTKVDLK
# notes: heavy chain of human MAb 3G12; light chain of human MAb 3G12; Whole IgG, captured by anti-human IgG Fc biosensors; also called MAb 3G12
# B3: human anti-RSV G monoclonal antibody 3D3 (antibody, V domains shown)
# VH: EEQLVESGGGLVQPGRSLRLSCVGSGLRFEEHAMHWVRQAPGRGLEWVSGISWNSGSVGYADSVKGRFTTSRDNAKDILFLEMNTLRSEDTALYFCAIMVATTKNDFHYYKDVWGKGTTVTVSS
# VL: QIVLTQSPATLSLSPGERATLSCRASQSVSNHLAWYQQKPGQAPRLLIYETSNRATGIPPRFSGSGSGTDFTLTISSLEPEDFAVYYCQQRNNWYTFGQGTKLEIK
# notes: heavy chain of human MAb 3D3; light chain of human MAb 3D3; Whole IgG, captured by anti-human IgG Fc biosensors; also called MAb 3D3
# Columns and labels:
# Experiment in all cases: BLI; Octet RED384; MAb (1 µg/mL) captured on anti-human IgG Fc (AHC) biosensors; RSV G^ecto proteins in solution, 40 nM 2-fold serially diluted to 0.63 nM (higher starting concentrations for CX4C); PBS pH 7.4, 0.05% Tween 20, 1% BSA; association 300 s, dissociation 600 s; global 1:1 fit; in duplicate
# [1] = target: human anti-RSV G monoclonal antibody 2D10 (human)
# [2] = target: human anti-RSV G monoclonal antibody 3D3 (human)
# [3] = target: human anti-RSV G monoclonal antibody 3G12 (human)
# [4] = target: T1, RSV G ectodomain wild-type protein (RSV strain A2, residues 64 to 298) (Human respiratory syncytial virus A, …, UniProt P03423); conditions: both partners purified
# T1 construct: glycosylated, runs at about 90 kDa on SDS-PAGE; also called RSV G^ecto WT; wild-type RSV G
Molecule,Kd [1],koff [1],kon [1],Kd [2],koff [2],kon [2],Kd [3],koff [3],kon [3],Kd [4],koff [4],kon [4]
RSV G ectodomain S177R mutant protein (residues 64 to 298) (from UniProt P03423 64-298) (domain or fragment),< 1 pM,< 1e-07 s⁻¹,318000 M⁻¹ s⁻¹ and 253000 M⁻¹ s⁻¹,422 pM and 570 pM,0.000104 s⁻¹ and 0.000151 s⁻¹,247000 M⁻¹ s⁻¹ and 265000 M⁻¹ s⁻¹,4340 pM and 4600 pM,0.000581 s⁻¹ and 0.000672 s⁻¹,134000 M⁻¹ s⁻¹ and 146000 M⁻¹ s⁻¹,–,–,–
RSV G ectodomain S177Q mutant protein (residues 64 to 298) (from UniProt P03423 64-298) (domain or fragment),605 pM and 485 pM,0.000225 s⁻¹ and 0.00015 s⁻¹,371000 M⁻¹ s⁻¹ and 310000 M⁻¹ s⁻¹,538 pM and 264 pM,0.000199 s⁻¹ and 0.000109 s⁻¹,369000 M⁻¹ s⁻¹ and 414000 M⁻¹ s⁻¹,1880 pM and 2280 pM,0.000447 s⁻¹ and 0.000528 s⁻¹,238000 M⁻¹ s⁻¹ and 232000 M⁻¹ s⁻¹,–,–,–
B1,–,–,–,–,–,–,–,–,–,< 1 pM,< 1e-07 s⁻¹,370000 M⁻¹ s⁻¹ and 383000 M⁻¹ s⁻¹
B2,–,–,–,–,–,–,–,–,–,260 pM and 262 pM,6.55e-05 s⁻¹ and 5.19e-05 s⁻¹,252000 M⁻¹ s⁻¹ and 198000 M⁻¹ s⁻¹
B3,–,–,–,–,–,–,–,–,–,< 1 pM,< 1e-07 s⁻¹,426000 M⁻¹ s⁻¹ and 431000 M⁻¹ s⁻¹
